Source: PMC6613885

Molecular target: GST-LC3B, Q9GZQ8
Test: GST-pulldown, in vitro-translated 35S-labelled protein, autoradiography quantification
Conditions: chain shown with the change; Means ± SD of 3 independent experiments; parent: est. 1.0; read off a plot

B1: Myc-tagged ATG14, full-length, in vitro translated, Q6ZNE5 F64A; F67A; W435A; L438A (protein)
chain: MASPSGKGARALEAPGCGPRPLARDLVDSVDDAEGLYVAVERCPLCNTTRRRLTCAKCVQSGDAVYADGRDRERFIDKKERLSRLKSKQEEFQKEVLKAMEGKWITDQLRWKIMSCKMRIEQLKQTICKGNEEMEKNSEGLLKTKEKNQKLYSRAQRHQEKKEKIQRHNRKLGDLVEKKTIDLRSHYERLANLRRSHILELTSVIFPIEEVKTGVRDPADVSSESDSAMTSSTVSKLAEARRTTYLSGRWVCDDHNGDTSISITGPWISLPNNGDYSAYYSWVEEKKTTQGPDMEQSNPAYTISAALCYATQLVNILSHILDVNLPKKLCNSEFCGENLSKQKFTRAVKKLNANILYLCFSQHVNLDQLQPLHTLRNLMYLVSPSSEHLGRSGPFEVRADLEESMEFVDPGVAGESDESGDERVSDEETDLGTDAENAPSPRFCDIPSQSVEVSQSQSTQASPPIASSSAGGMISSAAASVTSWFKAYTGHR
Q: With B1 as the binder, how does the response read?
A: Its response is 0.6 % binding.
